Measured values reported in the DeepSol protein solubility set.

Assay: soluble on expression in E. coli; label from the status in PepcDB or PDB records

Sequence	soluble on expression in E. coli
MSATETKYVPRLYKKYKEEVVPILQKKFNYKSPMQIPRLQKIVVNMGVGEAVQDIRQLERAVEDLRAITGQQPVITRARKSEAGFKLRKGMPIGCKVTLRKERMWDFLDKLISVALPRVKDFKGLSPRSFDGRGNYAFGIAEQIVFPEIDYDKVDRIRGMDIIINTTAETDEEAFWLLSLLGLPIRSM	soluble
MQNRLRSALALVTGAGSGIGRAVSVRLAGEGATVAACDLDRAAAQETVRLLGGPGSKEGPPRGNHAAFQADVSEARAARCLLEQVQACFSRPPSVVVSCAGITQDEFLLHMSEDDWDKVIAVNLKGTFLVTQAAAQALVSNGCRGSIINISSIVGKVGNVGQTNYAASKAGVIGLTQTAARELGRHGIRCNSVLPGFIATPMTQKVPQKVVDKITEMIPMGHLGDPEDVADVVAFLASEDSGYITGTSVEVTGGLFMAENLYFQ	soluble
MGSDKIHHHHHHMTRSTIGGKRFEPIPARFSSIGAGLMNIKQLEVLRTLLSTGSTIATAKAMGLSQSGISRLLAQLEADLSLTLFARDKGRLIPTPEAALLARDAENVLLAVDRMSGHAEDLRNGAAGPEIVRIGLPSSMWENFAPAMLIDYVRDFPGVRIETFFETTTAINKLVGERVIDLGFLRMEGEIGPGIDVERVATGKSVCVVREDHPLADLQEITVKDLRNIPLILIGRQRPNRMALDQVFKKAGVKPMVKIETHTNSSACAYVAHGLGVTIISSFYANLYRHLPVVARPFVPQATQEFGLARASGAPLSIAAQALSNALKREIQLSQKID	not soluble
MGSDKIHHHHHHEDVYREVTASGAHNLTLAVDNPRNLGGADDAALARDVAEVLRFDMTLAGPFSVMAPPAGTSPGGIRPGEFDLDSWRNAGVDLLVKSGYTITGDSVTMEFRLYNATQGRELAAKRYTGKRSDLRRITHTFSDDIMQTMTGERGPFTGKIAFVSTESGNKEIYLMDYDGHNVQRLTKNRSINLNPDFSPNGRELAYTSYRRGNPDLFRREIFTGTEAVVSSHRGINVTGTWSPDGKQLALAMSRDGNSEIYAISRDGRDPRRLTTHQAIDVSPAWSPDGKRIAFVSDRLGKPQVFIMNADGSDVRRLTTSGAYNVSPRWSPKGDRLVYCRQEGGFQIYSIATDGTGDTRLTSEGSNEHPRWSPDGRFLTFSSTRDGGEAIYVMRSDGSGQTRVYRSKGKASHPTWSPRW	not soluble
MRITIAGKIGSGKSTVSSELSRITGYTVYSSGTFFRETARKMNMSIEDFNVYSESHPEADYYTDETQKAFMQANDNIIVEGRLAGWISYLNGINAFRIFLYATYYTRLVRFAGRENIDIDSARDLMEKREKSEKERYRKLYGIDVDDLSIYDIVVNTEFMKPPEIAVYIANRIDEMSRKDIFTPRILR	not soluble
MEGNQAGSSLDSLIASFNKRIGELQELVIARNMYPASTIPDLSAIDTALSSMELQVQSIKDRLREETEAIPKAKKLIEASLKQQGKLQKMSIYAPSHFPDKATMLNSDLNRCLLQENAKQYEQHSTLSSLKFDEEAAVLPKEKKGRGSPPLWYITVEELNSLSSYMRGRLTLEKVNAAINDMASYAEANAHLIAASKQKLAENLWEKALKLRDIVTEQAVKGKHFFLETDMKGPSLKLDNTGKAILTVLRHLGRISETRIGQNRVIILMKPH	soluble
MSLAVTLADVARRAGVSLATASRVLNGSARAVSDEMRARVTAAARELHYVPNAHAQALARAATQTVGVIVHDVSDPYFAEILRGIQRSAADAGRLMIVCNTFRDPQRELEYVHLLQKQRVEAIILAGSGLDDRAYCRSMTERLDSFASMGGRVAVIGRHNIAADAVVPDNVGGARALAHYLLDLGHRSFGIIDGPALLTTSRDRRSGFVQALQAGGITLPPDAIIPGDFTRDGGAQAAIRLLERFPSITAIFALNDVMAIGALAALRERGITVPDQMSIVGFDDIPIAADVTPALTTMRVPMSQLGSEALALALSAEDTLRTIHLPTEMIVRQSTAEGHHHHHH	soluble
MGSDKIHHHHHHANTQTNIQLERTSSDIEHALYYASFAANSHNTQSWKVNLDPKQKRLGVFLNNKRSLNVVDPNNRELYISIGCYIQSLKKSFEAYGYNVSISNIAPSKENKYQVVLINYQKLKNNKINNKQLDIIQKRHTDKRKFQKKPINRTVVSSLIKKYNNVYYYAKGSKTFKYLQKGSLAAAAKQYKNQDFLKEQGKWLRFSNQEVEKKQDGISGDMLGLNPIIKTLYYLTSNHKNATSNNFVKQSKNTLINQVENCAGFFVITGEQNISKWIAVGEKSQAFWYDCVRNNIAVQPISAMIEIPSYNQKLQQNLGKSQPVQLILRVGYVNSYGKNVGPRRNLKDYITVKK	not soluble
GMMQKPITEIIIVGGGTAGWITAGLLAAEHNVDKGVLAHSPKLNITLIESPDVATIGVGEGTWPSMRSTLSKIGIDENDFIRQCDASFKQGSRFINWCKDPQSNVADSYLHPFSLPHGHQELDLCPYWLPHAEQVSFAEAVCSQQVLTQLGLAPKSIVTAQYHFQNNYGYHLNAAKFSQLLTEHCTQKLGVTHIRDHVSQIINNQHGDIEKLITKQNGEISGQLFIDCTGAKSLLLGEHLQVPFLSQKSVLFNDRALAIQVPYSDANSPIASCTHSTAQPNGWIWDIGLPTRKGVGYVYSSSHTNDIDAQKTLFNYLGVDGAAADKLEPRQLAINPGYRAKCWQNNCIAIGMAAGFIEPLEASALALIEWTASTLAQQLPPNRMVMDTISARVNERYQQHWQQIIDFLKLHYVISQRQEDRYWRDHRESNSIPDSLQAMLELWRYQTPSQQDISYKEALFPAASFQYVLYGMSFNTQLPTHVKPSMQQLAQRLFNDNQQRTQALSKNLPTNRELLDKVAQYGFPKL	soluble
GMNSPKNSLYEEKSGHYYNAVNPNLLKHIKKEWKEVLDIGCSSGALGAAIKENGTRVSGIEAFPEAAEQAKEKLDHVVLGDIETMDMPYEEEQFDCVIFGDVLEHLFDPWAVIEKVKPYIKQNGVILASIPNVSHISVLAPLLAGNWTYTEYGLLDKTHIRFFTFNEMLRMFLKAGYSISKVDRVYVDHKMYEPLIEELYGICKKYRLGSGFMAETVVFQYIIEAEKSQL	soluble
ALYNVDAGHRAVIFDRFRGVQDIVVGEGTHFLIPWVQKPIIFDCRSRPRNVPVITGSKDLQNVNITLRILFRPVASQLPRIFTSIGEDYDERVLPSITTEILKSVVARFDAGELITQRELVSRQVSDDLTERAATFGLILDDVSLTHLTFGKEFTEAVEAKQVAQQEAERARFVVEKAEQQKKAAIISAEGDSKAAELIANSLATAGDGLIELRKLEAAEDIAYQLSRSRNITYLPAGQSVLLQLPQ	not soluble
MAHHHHHHMEDITWVRSEVHSWIYDNLRAKWTSLVRQPTKLRTMFSGYRSTPTFVDRVLRRVGIANEIALTAMLRTWGPPELHAFVALYVRLRFPMIVALNKADLSTAADVAAALRQAYPHEVFVLMTARIEWLALQLSRKGYVDYTPGAASLSLKADCGEGADLEKRVRQELHDVTSFFRTTTSSPERLSSSVLRLTTTGVQDVLAAAMEACGVMLVYPVRAFHPVTSLAHCLTFKLGSSAERVFNALVHLQLLEGKLARFEMIDLAPVKRQLHQQLLASLATAPSNEASTPVPAQQQQCAVALPTSVQTLRKTEVIRSSAVLARILSNKRQLA	not soluble
MQFSLVIPVYNAGMMWPEVIRSIKSQTIQPECVIIIDSSSTDNTVAYATEAGFEVYHIDKSTFDHGGTRSMALERVNTEFVIYMTQDAILQNDEAFFYLLSAFNNEEVGAVYGRQLPHHDANPLATHARLHSYGEVGYVTSMKDDFPQGFRKAFMSNSFSGYRVSTLRQIGGFPAKLILGEDSYVAARMLSTGVSVGYIPQALARHSHNYSVGEEFKRYFDIGVFHKTQEWMLASLGKVEGEGVKFALGQICYLLKSNYYHYIPFSIASSGAKYLGYKLGKNYHRLNRTLCKKLSMYKSYWNSSVLEHHHHHH	soluble
MQMQVLTNTKFETVAFQWPAGFYSDGIHIGLRRHKKDFGWLFSKVPASAAGTYTTNQFQAAPTKLTKQMIDQGHQLQGLLLNSAIANSCTGEQGWQNALQEQAWLANKLNVAPNLIGVASTGLIGAQLPMDKIKNGLPQLTPTKSDAVTYAVLTTDQHPKTVCVQCELSGQLVTLTGFAKGSGMIHPKMATMLGFVTTDAQIDGPVLQDMLSTNVDQTFNQITVDGDTSTNDMVVTLANGLADNPSLQAGTTDYDIFNQALHYVLGQLAKQIAADGEGATKLVECNVVHAATTFDGQQIAKAIVGSNLVKAAIFGEDPNWGRIISTIGATDADIDVATVDIEMNGVLLVQQSLAVDFDMAAVQATLRDNQIMIDVDLHHGTASGQAWGCDLTYNYVKINASYHTLEHHHHHH	not soluble
QHPAFMTEMPTDGKYQDTIEALQSMKYDKEDDEDKQMNAEHHKEEGNKHFKFKKYRWATDCYSNGIKENSPDRKLNAVLYFNRAAAQKHLGNLRSAIKDCSMGRKFDPTHLKGVIRGAECLLELEYAKDALNWIESSKKIFAFTKETSDTPDLTDDEKKFIDQLETLRVKSVELSLKEERDKRKSRAEERKETESKKQLLDALKERNLNLCPRVPFDRPELMDMARLTVSLPLMHSHECVKFDDDLNLVWPILLQYPEAGQTDVLTETNELTTVGELLKEVLNSPAQWDPEHKFNFENVRFFVSDEYDEYLMEVYEWNDFKSVLSMPGYQIKQGLPVIMIMTKEKAASSLEALAEDENRYVAK	not soluble
MIYVTFTPYGAFGVKDNKEVSGLEDIEYKKLFNEEEIPDIMFKLKTQPNKIADELKEEWGDEIKLETLSTEPFNIGEFLRNNLFKVGKELGYFNNYDEFRKKMHYWSTELTKKVIKSYAQQKDKIIIQVAEAISDLDKTLNLLSERLREWYSLYFPELDHLVNKHEVYANLITKLGKRKNFTKSQLKKILPSKLAGKIAEAAKNSMGGELEDYDLDVIVKFAEEINHLYEKRKELYNYLEKLMNEEAPNITKLAGVSLGARLIGLAGGLEKLAKMPASTIQVLGAEKALFAHLRMGVEPPKHGIIYNHPLIQGSPHWQRGKIARALACKLAIAARADYVGDYIADELLEKLNKRVEEIRRKYPKPPKKKKKEKPKAKKKEKKGKKEKSKKKKDKKKDKKGKKERKVIGKTKSRKLEHHHHHH	soluble
MASYYEILDVPRSASADDIKKAYRRKALQWHPDKNPDNKEFAEKKFKEVAEAYEVLSDKHKREIYDRYGREGLTGTGTGPSRAEAGSGGPGFTFTFRSPEEVFREFFGSGDPFAELFDDLGPFSELQNRGSRHSGPFFTFSSSFPGHSDFSSSSFSFSPGAGAFRSVSTSTTFVQGRRITTRRIMENGQERVEVEEDGQLKSVTINGVPDDLALGLELSRREQQPSVTSRSGGTQVQQTPASCPLDSDLSEDEDLQLAMAYSLSEMEAAGKKPAGGREAQHRRQGRPKAQHQDPGLGGTQEGARGEATKRSPSPEEKASRCLIL	soluble
MKLCGKLANITTVDYGGIACHAGVDRRISLHNFTISLPESGNPMSATFDPDNLRASLLALNVIDPLSLDGQAYQRFYGLAGLGGENVVRSWLGRLDVDGYEIVGQVWLPESPVATLFLFHGFYDHMGLYRHVIEWALTQGFAVISCDLPGHGLSSGSRASINDFAEYQVVLQRLLLEAGSLGLPHPWHLCGQSTGGAIVIDHLLHQGAESPAQGEVILLAPLVRPRAWGWSRFSYRLLKPFVSGIARRFTENSNAPAFLPFLLADPLQPRRLPTAWVGALAQWIVRVESAPRSLRSPIIIQGDADMTVDWSHNLAVLKDKFSQPHILMLGHARHHLANETPELRARYFDFVKGRLG	not soluble
MQFTLEHAQDVLSGMPDPTFILSEDGIYIDVFGGTDKKAYHDGSNLIGKTLHSVLEKEQADWFIEQINRSLNQDSIVTIEYKMCADSIQGIDANSGPKGDLYYEGKICPLTINYQGRRVVLILTRNISNRHRVETLLRHQSQI	not soluble
